The source of these data is CN112538116A (DONGDA BIOTECHNOLOGY SUZHOU CO LTD, dated 2021).

B1: 抗人4-1BB人源化抗体10B2 (antibody, V domains shown)
VH: QVQLVESGGGVVQPGRSLRLSCAASGFTFSTFGLHWVRQAPGKGLEWVAYISSDSNTIYYADTMKGRFTISRDNSKNTLYLQMNSLRAEDTAVYYCTRGDPAYYGYGGRFVYALDFWGQGTLVTVSS
VL: DVVVTQTPLSLSVTPGQPASISCRSSQSLTNSYGHTYLSWYLQKPGQSPQLLIYGISIRFSGVPDRFSGSGSGTDFTLKISRVEAEDVGVYYCLQGTHQPWTFGGGTKVEIK
notes: Humanised antibody expressed in 293 cells, purified on Protein A, captured by anti-human IgG in Biacore; also called hu10B2
B2: 抗人4-1BB人源化抗体3A11 (antibody, V domains shown)
VH: EVQLVESGGGLVKPGGSLRLSCAASGFIFNTNAMNWVRQAPGKGLEWIARIRSKINNYATYYADSVKDRFTISRDDSKNTLYLQMNSLKTEDTAVYYCNWDEAYWGQGTLVTVSS
VL: DIQMTQSPSSLSASVGDRVTITCKASDHINNWLAWYQQKPGKAPKLLIFGATSLETGVPSRFSGSASGNDYTLTISSLQPEDFATYYCQQYWSIPYTFGQGTKLEIK
notes: Humanised antibody expressed in 293 cells, purified on Protein A, captured by anti-human IgG in Biacore; also called hu3A11
B3: 抗人4-1BB人源化抗体8H8 (antibody, V domains shown)
VH: QIQLVQSGSELKKPGASVKVSCKASGYTFSNYGMNWVRQAPGQGLEWMGWINTHTGEPTYADEFKGRFVFSLDTSVSTAYLQISSLKAEDTAVYYCARVLTMVMDYWGQGTLVTVSS
VL: DIVLTQSPDSLAVSLGERATINCRASEIIDGSGNSFVHWYQQKPGQPPKLLIYRTSTLESGVPDRFSGSGSRTDFTLTISSLQAEDVAVYYCLQTVEDPWTFGGGTKVEIK
notes: Humanised antibody expressed in 293 cells, purified on Protein A, captured by anti-human IgG in Biacore; also called hu8H8
B4: 抗人4-1BB人源化抗体1A2 (antibody, V domains shown)
VH: EAQLVQSGAEVKKPGATVKISCKVSGFNIKDTYMNWVQQAPGKGLEWIGRIAPANGNTKYAPQFQDRATITADTSTDTAYMELSSLRSEDTAVYYCARSYGSNFFDYWGQGTLVTVSS
VL: EIVLTQSPATLSLSPGERATLSCKSSQSVDNYDNSFMHWYQQKPGQAPRLLIYRASNLETGIPARFSGSGSRTDFTLTISSLEPEDFAVYYCQQSVENPFTFGQGTKLEIK
notes: Humanised antibody expressed in 293 cells, purified on Protein A, captured by anti-human IgG in Biacore; also called hu1A2
B5: 抗人4-1BB杂交瘤抗体3A11 (antibody, V domains shown)
VH: EVQLVETGGGLVQPNGSLKLSCAASGFIFNTNAMNWVRQAPGKGLEWIARIRSKINNYATYYADSVKDRFTISRDDSQSMLYLQMNNLKTEDTGMYYCNWDEAYWGQGTLVTVSA
VL: DIQMTQSSSYLSVSLGGRVTVTCKASDHINNWLAWYQQKPGNAPRLLIFGATSLETGVPSRFSGSASGNDYTLTITSLQTEDVATYYCQQYWSIPYTFGGGTKLEIK
notes: Mouse hybridoma antibody purified on Protein A
B6: 抗人4-1BB杂交瘤抗体10B2 (antibody, V domains shown)
VH: DVQLVESGGGLVQPGGSRKLSCAASGFTFSTFGLHWVRQAPEKGLEWVAYISSDSNTIYYADTMKGRFTISRDNPKNTLFLQLTSLRSEDTAVYYCTRGDPAYYGYGGRFVYALDFWGQGTSVAVSS
VL: DVVVTQTPLSLPVSFGDQVSISCRSSQSLTNSYGHTYLSWYLHKPGQSPQLLIYGISIRFSGVPDRFSGSGSGTDFTLRISTVKPEDLGMYYCLQGTHQPWTFGGGTKLEIK
notes: as for B5
B7: 抗人4-1BB杂交瘤抗体8H8 (antibody, V domains shown)
VH: QIQLVQSGPELKKPGETVKISCKASGYTFSNYGMNWVKQAPGKGLKWMGWINTHTGEPTYADEFKGRFAFSLETSVSTAYLQINNLKNEDTATYFCARVLTMVMDYWGQGTSVTVSS
VL: DIVLTQSPASLAVSLGQRATISCRASEIIDGSGNSFVHWYQQKPGQPPKLLIYRTSTLESGIPARFSGSGSRTDFTLTINPVEADDVATYSCLQTVEDPWTFGGGTKLEIK
notes: as for B5
B8: 抗人4-1BB杂交瘤抗体2F10 (antibody, V domains shown)
VH: QVQLQQSGAALVKPGASVKLSCTASGFNIEDTYLNWVKQRPEQGLEWIGKIYPANGDTKYDPKFQGKATITAETPSNKAYLQLSSLTSEDTAVYYCTRGYGSNFFDCWGQGTSLTVSS
VL: DIVLTQSPASLAVALGQRATISCRASESVDSYDNSFMHWYQQKVGQPPKLLIYRASNLESGLPARFSGSGSRTDFTLTINPVEADDVATYYCQQSNEDPYTFGGGTKLEII
notes: as for B5
B9: 抗人4-1BB杂交瘤抗体1A2 (antibody, V domains shown)
VH: EAQLQQSGAELVKPGASVKLSCTASGFNIKDTYMNWMKQRPEQGLEWIGRIAPANGNTKYAPQFQDKATITADTSSNTANLQLSSLTSEDTAVYYCARSYGSNFFDYWGQGTALTVSS
VL: EIQLTQSPASLAVSLGQRATISCKSSQSVDNYDNSFMHWYQQKPGQPPKLLIKRASNLETGVPARFSGSGSRTDFTLNIHPVEEEDTATYFCQQSVENPFTFGSGTKVELK
notes: as for B5
B10: 抗人4-1BB杂交瘤抗体3F10 (antibody, V domains shown)
VH: QVQLQQSGAELVRPGASVKISCKAFGFTFTHHHINWVKQRPGQGLDWIGYINPYNDYSIYNQKFEGKATLTVDKSSSTAYMELSRLTSDDSAVYFCARGGLGRGYFDYWGQGTTLTVSS
VL: DIVMTQSTAIMSASLGEKVTMTCRASSSVTSSYLHWYQQKSGASPKIWISSTSNLASGVPVRFSGSGSGTSYSLTISSVEAEDAATYYCQQYSGNPYTFGGGTKLEIK
notes: as for B5
B11: 抗人4-1BB杂交瘤抗体8E9 (antibody, V domains shown)
VH: QAQLQQSGPELVRPGTSVKMSCKTSGYSFTGYWMHWMKQRPGQGLEWIGMIDPSNSDTRLNQKFKDKATLNVDKSSNTAYMDFSSLTSEDSAVYYCARWRYYGYDGIAYWGQGTLVTVSA
VL: DIVMTQSPSSLTVTAGEKVTVSCKSSQSLLNSGNQRNYLTWYQQKPGQPPKLLIYWASTRESGVPDHFTGSGSGTDFTLTISSVQAEDLAVYYCQNDYTYPFTFGGGTKLEIK
notes: as for B5
B12: 抗人4-1BB杂交瘤抗体8A8 (antibody, V domains shown)
VH: QVQLKQSGPGLVQPSQSLSITCTVSGFSLTNYGVHWVRQSPGKGLEWLGAIWSGGNTDYSAAFMSRVTINKDNSKSQVFFKMNSLRPDDTAIYYCARNPYYTNVMDYWGQGTSVTVSS
VL: DIQMTQSPASLSASVGETVTITCRASGNIGNFLAWYQQKQGKSPQLLVYNGETLADGVPSRFSGSGSGTQYSLKINSLQPEDFGSYYCQHFWSTPWTFGGGTKLEIK
notes: as for B5

The target in one test is T1, 4-1BB-ECD-hFc (human, UniProt Q07011 24-186).
T1 construct: extracellular domain; Coated on the ELISA plate; also called 4-1BB-hFc; 4-1BB-hFc蛋白; not shown: human Fc (hFc)
As to the kind of experiment: ELISA, method as in Example 1. (In general: ELISA stands for enzyme-linked immunosorbent assay.)
Consider B1, for which the binding result is given as “binds”.

Turning to B2, the binding result was “binds”.

With B3, the binding result is listed as “binds”.

As to B4, the binding result is on record as “binds”.

The target of the next test is T1, 4-1BB-ECD-hFc. The experiment in a line: ELISA, 4-1BB-ECD-hFc coated.
Regarding B5, the binding result was “binds”.

Take B6: the binding result is reported as “binds”.

Regarding B7, the binding result is recorded as “binds”.

For the molecule B8, the binding result is reported as “binds”.

On to B9, for which the binding result is “binds”.

For B10, the binding result is “binds”.

Take B11: the binding result was “binds”.

Regarding B12, the binding result is listed as “binds”.

The target in the next test is T2, 人4-1BB on Jurkat-4-1BB细胞 (human, UniProt Q07011 24-255).
T2 construct: whole, on cells; the reporter line Jurkat-4-1BB-NFkB-luc carries the same receptor; also called Jurkat-4-1BB-NFkB-luc; CD137
T2 sequence (Q07011 24-255): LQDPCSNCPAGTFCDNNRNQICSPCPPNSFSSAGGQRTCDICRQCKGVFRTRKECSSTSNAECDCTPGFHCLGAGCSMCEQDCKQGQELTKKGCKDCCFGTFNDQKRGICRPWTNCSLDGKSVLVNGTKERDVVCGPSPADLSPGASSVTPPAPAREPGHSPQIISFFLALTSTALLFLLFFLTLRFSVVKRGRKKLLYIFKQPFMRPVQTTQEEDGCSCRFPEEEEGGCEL
As to the kind of experiment: FACS on Jurkat-4-1BB cells.
B5: the binding result was “binds”.

With B1, the binding result is recorded as “binds”.

On to B6, for which the binding result was “binds”.

On to B2, for which the binding result is “binds”.

Consider B7, for which the binding result is given as “binds”.

As for B8, the binding result is given as “binds”.

For B9, the binding result is recorded as “binds”.

Regarding B3, the binding result was “binds”.

As to B10, the binding result is reported as “binds”.

In the case of B4, the binding result was “binds”.

Consider B11, for which the binding result is listed as “binds”.

B12: the binding result was “binds”.
